The numbers were not newly measured in PMC4449261, which cites them from elsewhere.

One data set concerns the target IL-13Rα1 (Homo sapiens) (UniProt P78552).
The target of a further data set is IL-4Rα1 (Homo sapiens) (UniProt P24394).
Chain of UniProt P24394 (P24394 26-232): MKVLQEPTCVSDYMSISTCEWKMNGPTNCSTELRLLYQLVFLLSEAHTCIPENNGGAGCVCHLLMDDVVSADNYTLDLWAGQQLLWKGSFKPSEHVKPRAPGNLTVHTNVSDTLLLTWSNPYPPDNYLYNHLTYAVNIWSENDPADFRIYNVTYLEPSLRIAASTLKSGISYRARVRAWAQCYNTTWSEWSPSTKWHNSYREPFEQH

Chain of UniProt P78552 (P78552 22-343): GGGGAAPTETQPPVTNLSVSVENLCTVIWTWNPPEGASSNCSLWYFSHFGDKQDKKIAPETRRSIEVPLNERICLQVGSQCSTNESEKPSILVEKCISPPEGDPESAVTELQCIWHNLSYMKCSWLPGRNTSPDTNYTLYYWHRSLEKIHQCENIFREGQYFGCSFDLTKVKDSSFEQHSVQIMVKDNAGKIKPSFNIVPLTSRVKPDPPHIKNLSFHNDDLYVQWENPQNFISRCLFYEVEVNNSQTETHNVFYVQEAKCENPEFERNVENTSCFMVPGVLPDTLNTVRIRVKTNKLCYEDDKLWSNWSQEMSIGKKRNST

By Kd is commonly meant the equilibrium constant for the complex coming apart. In the case of IL-13 (from UniProt P35225), in the data set with IL-13Rα1 (Homo sapiens), the Kd is 4 nM. Turning to IL-4 (from UniProt P05112), the Kd with IL-4Rα1 (Homo sapiens) is 0.1 nM.
